Laboratory results: patent publication US20230293638A1 (Eli Lilly, published 2023)
Numbered stars: 1 amine (or outer) side, 2 acyl side, 3 side chain; on linkers, the order of the positions; unused ones are H or OH. Square brackets hold non-standard residues; d marks the D form. Side chains are listed from the residue outwards. Ends that are not written are not given here. * marks the point of attachment. C20 diacid = O=C(O)CCCCCCCCCCCCCCCCCCC(=O)*; γGlu = O=C(O)[C@H](CCC(=O)[*:2])N[*:1]; AEEA = NCCOCCOCC(=O)O; Aib = CC(C)(N)C(=O)O

molecular target: T1, human gastric inhibitory peptide receptor (human, UniProt P48546 22-466); assay: cell-based or functional assay
T1 sequence (looked up): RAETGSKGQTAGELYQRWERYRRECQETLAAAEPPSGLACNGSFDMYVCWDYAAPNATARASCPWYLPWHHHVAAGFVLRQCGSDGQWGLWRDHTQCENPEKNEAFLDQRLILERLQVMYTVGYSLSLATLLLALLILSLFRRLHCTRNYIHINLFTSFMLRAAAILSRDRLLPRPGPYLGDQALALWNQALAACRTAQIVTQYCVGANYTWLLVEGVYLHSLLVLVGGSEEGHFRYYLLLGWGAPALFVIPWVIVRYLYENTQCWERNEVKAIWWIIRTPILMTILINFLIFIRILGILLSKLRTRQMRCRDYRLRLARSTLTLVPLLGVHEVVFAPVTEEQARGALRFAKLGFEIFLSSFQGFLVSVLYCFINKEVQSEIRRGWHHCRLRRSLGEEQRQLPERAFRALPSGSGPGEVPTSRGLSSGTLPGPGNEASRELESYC

Binder	hGIPR cAMP EC50 ratio
YXEGTXTSDXSIXLDXKAQXEFIXXLIEGG (Aib2; αMeF(2F)6; 4Pal10; αMeL13; Orn16; K17((2-[2-(2-Amino-ethoxy)-ethoxy]-acetyl)2-(γGlu)-CO-(CH2)16-CO2H); Aib20; D-Glu24; αMeY25; C-terminal NH2) [Peptide 265]	9.77

molecular target: human GLP-1 receptor (human, UniProt P43220 24-463); assay: cell-based or functional assay

Binder	hGLPIR cAMP EC50 ratio
YXEGTXTSDYSIXLDKKAQXAFIEYLIEGG (Aib2; αMeF6; αMeL13; K17((2-[2-(2-Amino-ethoxy)-ethoxy]-acetyl)2-(γGlu)-CO-(CH2)18-CO2H); Aib20; C-terminal NH2) [Peptide 99]	0.629
YXEGTXTSDYSILLDKIAQXAFIEYLIKGG (Aib2; αMeF6; Aib20; K28((2-[2-(2-Amino-ethoxy)-ethoxy]-acetyl)2-(γGlu)-CO-(CH2)18-CO2H); C-terminal NH2) [Peptide 95]	0.0576
Y[Aib]EGTFTSDYSILLDKIAQ[Aib]AFIEYLIK([AEEA-AEEA-γGlu-C20 diacid])GG-NH2 (N-terminus assumed; SMILES CC[C@H](C)[C@H](NC(=O)[C@H](CCCCN)NC(=O)[C@H](CC(=O)O)NC(=O)[C@H](CC(C)C)NC(=O)[C@H](CC(C)C)NC(=O)[C@@H](NC(=O)[C@H](CO)NC(=O)[C@H](Cc1ccc(O)cc1)NC(=O)[C@H](CC(=O)O)NC(=O)[C@H](CO)NC(=O)[C@@H](NC(=O)[C@H](Cc1ccccc1)NC(=O)[C@@H](NC(=O)CNC(=O)[C@H](CCC(=O)O)NC(=O)C(C)(C)NC(=O)[C@@H](N)Cc1ccc(O)cc1)[C@@H](C)O)[C@@H](C)O)[C@@H](C)CC)C(=O)N[C@@H](C)C(=O)N[C@@H](CCC(N)=O)C(=O)NC(C)(C)C(=O)N[C@@H](C)C(=O)N[C@@H](Cc1ccccc1)C(=O)N[C@H](C(=O)N[C@@H](CCC(=O)O)C(=O)N[C@@H](Cc1ccc(O)cc1)C(=O)N[C@@H](CC(C)C)C(=O)N[C@H](C(=O)N[C@@H](CCCCNC(=O)COCCOCCNC(=O)COCCOCCNC(=O)CC[C@H](NC(=O)CCCCCCCCCCCCCCCCCCC(=O)O)C(=O)O)C(=O)NCC(=O)NCC(N)=O)[C@@H](C)CC)[C@@H](C)CC) [Peptide 73]	0.0225
YXEGTXTSDXSIXLDXKAQXEFIXXLIEGGPSSGAPPPS (Aib2; αMeF(2F)6; 4Pal10; αMeL13; Orn16; K17((2-[2-(2-Amino-ethoxy)-ethoxy]-acetyl)2-(γGlu)-CO-(CH2)16-CO2H); Aib20; D-Glu24; αMeY25; C-terminal NH2) [Peptide 4]	1.41
YXEGTXTSDYSIXLDEKAQXEFIEYLIEGG (Aib2; αMeF(2F)6; αMeL13; K17((2-[2-(2-Amino-ethoxy)-ethoxy]-acetyl)2-(γGlu)-CO-(CH2)16-CO2H); Aib20; C-terminal NH2) [Peptide 104]	1.85
YXEGTFTSDYSIXLDTKAQXAFIEYLIEGG (Aib2; αMeL13; K17((2-[2-(2-Amino-ethoxy)-ethoxy]-acetyl)2-(γGlu)-CO-(CH2)18-CO2H); Aib20; C-terminal NH2) [Peptide 65]	0.233
YXEGTFTSDYSIXLDKIAQXAFIEYLIKGG (Aib2; αMeL13; Aib20; K28((2-[2-(2-Amino-ethoxy)-ethoxy]-acetyl)2-(γGlu)-CO-(CH2)18-CO2H); C-terminal NH2) [Peptide 97]	0.0268
YXEGTXTSDYSILLDKKAQXAFIEYLIEGG (Aib2; αMeF6; K17((2-[2-(2-Amino-ethoxy)-ethoxy]-acetyl)2-(γGlu)-CO-(CH2)18-CO2H); Aib20; C-terminal NH2) [Peptide 98]	0.384
YXEGTFTSDYSIXLDKKAQXAFIEYLIEGG (Aib2; αMeL13; K17((2-[2-(2-Amino-ethoxy)-ethoxy]-acetyl)2-(γGlu)-CO-(CH2)18-CO2H); Aib20; C-terminal NH2) [Peptide 62]	0.463
YXEGTFTSDYSIXLDEKAQXAFIEYLIEGG (Aib2; αMeL13; K17((2-[2-(2-Amino-ethoxy)-ethoxy]-acetyl)2-(γGlu)-CO-(CH2)18-CO2H); Aib20; C-terminal NH2) [Peptide 63]	0.386
YXEGTXTSDYSIXLDEKAQXEFIEYLIEGG (Aib2; αMeF(2F)6; αMeL13; K17((2-[2-(2-Amino-ethoxy)-ethoxy]-acetyl)2-(γGlu)-CO-(CH2)18-CO2H); Aib20; C-terminal NH2) [Peptide 103]	0.655
YXEGTFTSDYSIXLDSKAQXAFIEYLIEGGPSSGAPPPS (Aib2; αMeL13; K17((2-[2-(2-Amino-ethoxy)-ethoxy]-acetyl)2-(γGlu)-CO-(CH2)18-CO2H); Aib20; C-terminal NH2) [Peptide 52]	0.514
YXEGTXTSDYSIXLDXKAQXEFIXYLIEGGPSSGAPPPS (Aib2; αMeF(2F)6; αMeL13; Orn16; K17((2-[2-(2-Amino-ethoxy)-ethoxy]-acetyl)2-(γGlu)-CO-(CH2)18-CO2H); Aib20; D-Glu24; C-terminal NH2) [Peptide 3]	1.25
YXEGTFTSDYXILLDKKAQXAFIEYLIEGGPSSGAPPPS (Aib2; αMeS11; K17((2-[2-(2-Amino-ethoxy)-ethoxy]-acetyl)2-(γGlu)-CO-(CH2)18-CO2H); Aib20; C-terminal NH2) [Peptide 68]	0.354
YXEGTFTSDYXILLDKKAQXAFIEYLIEGGPSSGAPPPS (Aib2; D-Ser11; K17((2-[2-(2-Amino-ethoxy)-ethoxy]-acetyl)2-(γGlu)-CO-(CH2)18-CO2H); Aib20; C-terminal NH2) [Peptide 81]	0.063
YXEGTFTSDYSILLDKKAQXAFIEYLIXGGPSSGAPPPS (Aib2; K17((2-[2-(2-Amino-ethoxy)-ethoxy]-acetyl)2-(γGlu)-CO-(CH2)18-CO2H); Aib20; D-Glu28; C-terminal NH2) [Peptide 83]	0.166
YXEGTFTSDYSIXLDEKAQXAFIEYLLEGGPSSGAPPPS (Aib2; αMeL13; K17((2-[2-(2-Amino-ethoxy)-ethoxy]-acetyl)2-(γGlu)-CO-(CH2)18-CO2H); Aib20; C-terminal NH2) [Peptide 66]	0.255
YXEGTFTSDYSIXLDXKAQXAFIEYLIEGGPSSGAPPPS (Aib2; αMeL13; Aib16; K17((2-[2-(2-Amino-ethoxy)-ethoxy]-acetyl)2-(γGlu)-CO-(CH2)18-CO2H); Aib20; C-terminal NH2) [Peptide 60]	0.237
YXEGTXTSDYSIXLDKKAQXAFIEYLIEGGPSSGAPPPS (Aib2; αMeF6; αMeL13; K17((2-[2-(2-Amino-ethoxy)-ethoxy]-acetyl)2-(γGlu)-CO-(CH2)18-CO2H); Aib20; C-terminal NH2) [Peptide 69]	0.85
YXEGTFTSDYSILLDKKAQXAFIXYLIEGGPSSGAPPPS (Aib2; K17((2-[2-(2-Amino-ethoxy)-ethoxy]-acetyl)2-(γGlu)-CO-(CH2)18-CO2H); Aib20; D-Glu24; C-terminal NH2) [Peptide 84]	0.173
YXXGTFTSDYSILLDKKAQXAFIEYLIEGGPSSGAPPPS (Aib2; Aad3; K17((2-[2-(2-Amino-ethoxy)-ethoxy]-acetyl)2-(γGlu)-CO-(CH2)18-CO2H); Aib20; C-terminal NH2) [Peptide 89]	0.175
YXEGTFTSDYSIXLDSKAQXAFIEYLIEGG (Aib2; αMeL13; K17((2-[2-(2-Amino-ethoxy)-ethoxy]-acetyl)2-(γGlu)-CO-(CH2)18-CO2H); Aib20; C-terminal NH2) [Peptide 64]	0.429
Y[Aib]EGTFTSDYSILLDKK([AEEA-AEEA-γGlu-C20 diacid])AQ[Aib]AFIEYLIEGGPSSG-NH2 (N-terminus assumed; SMILES CC[C@H](C)[C@H](NC(=O)[C@H](CC(C)C)NC(=O)[C@H](Cc1ccc(O)cc1)NC(=O)[C@H](CCC(=O)O)NC(=O)[C@@H](NC(=O)[C@H](Cc1ccccc1)NC(=O)[C@H](C)NC(=O)C(C)(C)NC(=O)[C@H](CCC(N)=O)NC(=O)[C@H](C)NC(=O)[C@H](CCCCNC(=O)COCCOCCNC(=O)COCCOCCNC(=O)CC[C@H](NC(=O)CCCCCCCCCCCCCCCCCCC(=O)O)C(=O)O)NC(=O)[C@H](CCCCN)NC(=O)[C@H](CC(=O)O)NC(=O)[C@H](CC(C)C)NC(=O)[C@H](CC(C)C)NC(=O)[C@@H](NC(=O)[C@H](CO)NC(=O)[C@H](Cc1ccc(O)cc1)NC(=O)[C@H](CC(=O)O)NC(=O)[C@H](CO)NC(=O)[C@@H](NC(=O)[C@H](Cc1ccccc1)NC(=O)[C@@H](NC(=O)CNC(=O)[C@H](CCC(=O)O)NC(=O)C(C)(C)NC(=O)[C@@H](N)Cc1ccc(O)cc1)[C@@H](C)O)[C@@H](C)O)[C@@H](C)CC)[C@@H](C)CC)C(=O)N[C@@H](CCC(=O)O)C(=O)NCC(=O)NCC(=O)N1CCC[C@H]1C(=O)N[C@@H](CO)C(=O)N[C@@H](CO)C(=O)NCC(N)=O) [Peptide 50]	0.675
Y[Aib]EGTFTSDYSILLDKK([AEEA-AEEA-γGlu-C20 diacid])AQ[Aib]AFIEYLIEGG-NH2 (N-terminus assumed; SMILES CC[C@H](C)[C@H](NC(=O)[C@H](CC(C)C)NC(=O)[C@H](Cc1ccc(O)cc1)NC(=O)[C@H](CCC(=O)O)NC(=O)[C@@H](NC(=O)[C@H](Cc1ccccc1)NC(=O)[C@H](C)NC(=O)C(C)(C)NC(=O)[C@H](CCC(N)=O)NC(=O)[C@H](C)NC(=O)[C@H](CCCCNC(=O)COCCOCCNC(=O)COCCOCCNC(=O)CC[C@H](NC(=O)CCCCCCCCCCCCCCCCCCC(=O)O)C(=O)O)NC(=O)[C@H](CCCCN)NC(=O)[C@H](CC(=O)O)NC(=O)[C@H](CC(C)C)NC(=O)[C@H](CC(C)C)NC(=O)[C@@H](NC(=O)[C@H](CO)NC(=O)[C@H](Cc1ccc(O)cc1)NC(=O)[C@H](CC(=O)O)NC(=O)[C@H](CO)NC(=O)[C@@H](NC(=O)[C@H](Cc1ccccc1)NC(=O)[C@@H](NC(=O)CNC(=O)[C@H](CCC(=O)O)NC(=O)C(C)(C)NC(=O)[C@@H](N)Cc1ccc(O)cc1)[C@@H](C)O)[C@@H](C)O)[C@@H](C)CC)[C@@H](C)CC)C(=O)N[C@@H](CCC(=O)O)C(=O)NCC(=O)NCC(N)=O) [Peptide 51]	0.426
YXEGTXTSDXSIXLDXKAQXEFIXXLIEGG (Aib2; αMeF(2F)6; 4Pal10; αMeL13; Orn16; K17((2-[2-(2-Amino-ethoxy)-ethoxy]-acetyl)2-(γGlu)-CO-(CH2)16-CO2H); Aib20; D-Glu24; αMeY25; C-terminal NH2) [Peptide 265]	3.27
